Assay results from publication PMC5173319, “Crenactin forms actin-like double helical filaments regulated by arcadin-2” (eLife, 2016).

B1: Pyrobaculum calidifontis arcadin-2 (natural protein, UniProt A3MWN6 1-203, looked up)
chain: MDFPKVLLIRHFTEVLGMKYAGEGGEVLWFEEGLNRVAVGIYFTDLYEEAELYKRVGALMGLGASKVFLAVLPDALAFVDPRYFKANGVGLVVVDPAKGVDGVEVKIFARARPAAVEPLKIDAVKAALHEYLASELKRVEESLFEKVRRYVDQRVEEVKRALQAVEEAKRAAPPVQRAAAESAQEPRGGIGENEWVKILRSKR
notes: arcadin-2, Pyrobaculum calidifontis, NCBI WP_011850311.1; untagged, native protein from pHis17; The construct used for co-expression with crenactin is not described; also called full-length arcadin-2; source: E. coli C41(DE3), purified (heat step 60°C, ammonium sulphate precipitation, Sephacryl S300); also co-expressed with crenactin and purified as a complex
B2: Pyrobaculum calidifontis crenactin (natural protein, UniProt A3MWN5 1-432, looked up)
chain: MGVISDAYRLKYTFGVDFGTSYVKYGPITLNEPKMVQTRGLFLRDLPESVKMRIPPDVLARGLVVGDEEVRKYLSSVRDVQRNLKYPLKDGVARRDDEEAWRVLKELARYTLAQFPVSDPEFAGWLVAVALSALAPDYMYKAIFDIYDELASEFKIYAVTILPQPLAVAIAENAVNCVIVEGGHGNIQVAPISFALIREGLVALNRGGAEANAITREILKDIGYSDIAREEYAVEVVKRAVGLVPRRLKEAIRAAKSDPDRFVTKVRLSPVVEVEIPREYAWTRFLIGEIVFDPNHEEIKSYIEQSRLRIENAVIGDVTLYGEMDVASAIITSLRNVSVEIQERVASQIILSGGAFSWRVPPGMEDVAADSVTRVKIALEEKSPALASKVEVRLVSEPQYSVWRGAVIYGYALPLSLEWSDTTREGWRFPRR
notes: codon-optimised gene in pOPIN-S; Forms double-stranded helical filaments with ATP and MgCl2; The construct used for co-expression with arcadin-2 is not described; also called PCC; source: E. coli C41(DE3), purified (Ni-NTA, elution by SUMO tag cleavage with SENP1, Sephacryl S300); also co-expressed with arcadin-2 and purified as a complex; not shown: His6, N-terminal, cleaved; SUMO, N-terminal, …
B3: arcadin-2 C-terminal peptide (residues 187-203) (peptide, UniProt A3MWN6 187-203, looked up)
peptide: RGGIGENEWVKILRSKR
notes: arcadin-2, Pyrobaculum calidifontis, NCBI WP_011850311.1, residues R187 to R203 (the last 17 amino acids); also called arcadin-2 peptide; C-peptide; source: synthetic peptide (Generon, U.K)

Legend:
[1] = target: B2; test: SPR; crenactin immobilised by amide coupling on CM5 chip (~700 RU), Biacore T200, PBS-0.005% Tween 20, 20°C; arcadin-2 or arcadin-2ΔC in 1:2 dilution series from 2 µM; kinetic fits, Kd = koff/kon; settings: both partners purified
[2] = target: the molecule itself; test: cryo-EM structure; crenactin 0.5-1 mg/ml in 50 mM NH4HCO3, 20 mM KCl, polymerised with 2 mM ATP and 4 mM MgCl2 for 30 min on ice; helical reconstruction in RELION 2.0
[3] = target: B2; test: crystal structure; crenactin at 7 mg/ml mixed with arcadin-2 peptide at molar ratio 1 to 3; 0.31 M sodium acetate, 12.8% PEG 4000, 0.1 M sodium acetate pH 4.5; 1.6 Å; settings: both partners purified

Binder: B1
Kd [1]: 31 nM

Binder: B2
binding result [2]: binds

Binder: B3
binding result [3]: binds
